Test results taken from US20050142135A1, “Agents and methods for modulating interactions between gonadotropin hormones and receptors” (University of Kentucky Research Foundation, priority 2003, published 2005).
Numbering of substitutions follows the chain as printed. Each block holds one molecule with its values, some of them ahead of it.

Assays:
human FSHR [1] = assay: FSH dependent intracellular cAMP assay, wild type and mutant FSHR in HEK 293 cells; type: cell-based; conditions: for FSH dependent cAMP induction / EC50 compared with the wild type receptor, in words: HEK 293 cells
Experimental: (§1) Mutant FSHR cDNAs were prepared in the pSELECT vector using the Altered Sites Mutagenesis system (Promega), sequenced on a Beckman CEQ 2000XL capillary sequencer, subcloned into pcDNA3 (Invitrogen), and sequenced again to verify mutation sequences. […] Wild type and mutant receptor constructs were transfected into HEK 293 cells by the calcium phosphate method as previously described. Stable cell lines were established in minimum essential medium containing 10% horse serum and 500 μg/ml of G418. These cells were used for hormone binding, cAMP production. All assays were carried out in duplicate and repeated 4-5 times, and means±S.D. were calculated.
(§2) The Kd values were determined by Scatchard plots. For intracellular cAMP assay, cells were washed twice with Dulbecco's modified Eagle's medium and incubated in the medium containing 0.1 μg/ml isobutylmethylxanthine for 15 mm. Increasing concentrations of FSH were then added and incubation was continued for 45 mm at 37° C. After removing the medium, the cells were rinsed once with fresh medium without isobutylmethylxanthine, lysed in 70% ethanol, freeze-thawed in liquid nitrogen, and scraped.
(§3) Human FSH (the National Hormone and Pituitary Program) was radioiodinated as previously described for radioiodination of hCG. […] The Kd values were determined by Scatchard plots. Truncated exodomain was solubilized in Nonidet P-40 and assayed for hormone binding as described previously. For intracellular cAMP assay, cells were washed twice with Dulbecco's modified Eagle's media and incubated in the media containing isobutylmethylxanthine (0.1 mg/ml) for 15 minutes. Increasing concentrations of FSH were then added and the incubation was continued for 45 minutes at 37° C. After removing the media, the cells were rinsed once with fresh media without isobutylmethylxanthine, lysed in 70% ethanol, freeze-thawed in liquid nitrogen, and scraped. […] Exoloop 3 of FSHR was modeled based on the crystal structure of rhodopsin as a template.

human FSHR [2] = assay: ^125I-FSH binding to wild type and mutant FSH receptors on intact stably transfected HEK 293 cells; conditions: for FSH binding / Kd compared with the wild type receptor, in words: intact HEK 293 cells
Experimental: as §1, §2
Each mutant human FSHR cDNA was prepared in a pSELECT vector using the non-PCR based Altered Sites Mutagenesis System (Promega), sequenced on a Beckman CEQ 2000XL capillary sequencer and subcloned into pcDNA3 (Invitrogen) as described. After subcloning pcDNA3 the mutant cDNAs were sequenced again. Plasmids were transfected into human embryonic kidney (HEK) 293 cells by the calcium phosphate method. Stable cell lines were established in minimum essential medium containing 10% horse serum and 500 μg/ml of G-418, and then used for hormone binding and cAMP assay. All assays were carried out in duplicate and repeated 4-6 times. Means and standard variations were calculated.
as §3

FSHR = assay: ^125I-FSH binding to solubilized FSHR (NP-40); design: species or system human; conditions: solubilized mutant receptors
Experimental: Transfected cells were washed twice with ice cold 150 mM NaCl, 20 mM HEPES, pH 7.4 (buffer A). Cells were scraped on ice, collected in buffer A containing protease inhibitors (1 mM phenylmethylsulfonyl fluoride, 5 mM N-ethylmaleimide, and 10 mM EDTA), and pelleted by centrifugation at 1300×g for 10 minutes. Cells were resuspended in 0.6 ml of buffer A containing 1% NP-40, 20% glycerol, and the above protease inhibitors (buffer B), incubated on ice for 15 mm, and diluted with 5.4 ml of buffer A containing 20% glycerol plus the protease inhibitors (buffer C). The mixture was centrifuged at 100,000×g for 60 minutes. […] After incubation for 12 hours at 4° C., the solution was thoroughly mixed with 250 μl of buffer A containing bovine γ-globulin (5 μg/ml) and 750 μl of buffer A containing 20% polyethylene glycol 8000. After incubation for 10 minutes at 4° C., samples were pelleted at 1300×g for 30 mm and supernatants removed. Pellets were resuspended in 1.5 ml of buffer A containing 20% polyethylene glycol 8000, centrifuged, and counted for radioactivity.

human FSHR [3] = assay: Inositol phosphate assay, FSHR exoloop 3 mutants in HEK 293 cells, FSH stimulated; type: cell-based; conditions: for IPt (CPM): total IP production in response to increasing concentrations of FSH, NS = not significant
Experimental: Stable cells were plated in 12 well plates and grown in inositol free DMEM (Atlanta Biologicals) supplemented with 8% heat-inactivated horse serum and 2 μCi/ml ^3H-inositol (N EN) for 48 h to 40-50% confluency. After removing the medium, the cells were incubated in 1 ml of fresh wash buffer consisting of DMEM without inositol and 15 mM HEPES (pH 7.3) for 1 hour at 37° C. This medium was removed and 0.3 ml wash buffer containing 20 mM LiCl was added and incubated for 15 minutes at 37° C. After the cells were stimulated with increasing concentrations of hormone for 30 minutes at 37° C., the incubation was terminated by the removal of medium and the addition of 0.25 ml of 0.6 N HCl to each well. The cells were scraped and transferred into microcentrifuge tubes, and the wells were again washed with 0.25 ml of 0.6 N HCl. The combined washes were treated with 0.9 ml of a mixture of chloroform:methanol (2:1), vortexed and centrifuged at 1000×g for 5 minutes at room temperature. The top aqueous layer, which was free of phospholipids, was removed and the remaining chloroform layer treated with 0.2 ml of methanol:water (1:1), vortexed and centrifuged. This aqueous layer was added to the previous aqueous layer and the samples dried in a vacuum concentrator. The dried samples were redissolved in 0.5 ml of 50 mM Tris-HCl, pH 8 and applied to Dowex AG 1-X8 formate (BIO-RAD) columns. The microcentrifuge tubes were washed twice with 0.5 ml of the same buffer and the washes applied to the columns for a total of 1.5 ml. The columns were sequentially washed with 4.5 ml H2O and 4.5 ml 60 mM ammonium formate and 5 mM sodium tetraborate to elute the free inositol and the glycerol phosphoinositol. IP1, IP2 and IP3 were sequentially eluted with 4 ml of 0.1 N formic acid in 0.2 M, 0.75 M ammonium formate and 1.1 M ammonium formate, respectively and collected in 1 ml fractions. Aliquots of 200 μl were counted for radioactivity in 1.5 ml of Ultima AF scintillation fluid (Packard). Peak radioactivities were used for the data analysis.
Target sequence in this assay (P23945 18-366 limits assumed): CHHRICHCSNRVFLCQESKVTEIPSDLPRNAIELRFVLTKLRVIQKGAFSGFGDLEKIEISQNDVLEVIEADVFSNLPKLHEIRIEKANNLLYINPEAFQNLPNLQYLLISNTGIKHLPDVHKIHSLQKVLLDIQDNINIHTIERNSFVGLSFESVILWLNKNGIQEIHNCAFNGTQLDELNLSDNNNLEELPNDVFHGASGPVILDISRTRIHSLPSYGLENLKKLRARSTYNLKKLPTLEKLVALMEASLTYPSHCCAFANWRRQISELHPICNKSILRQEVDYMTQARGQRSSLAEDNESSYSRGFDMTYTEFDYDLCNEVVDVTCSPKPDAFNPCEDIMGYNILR

- reduction (improvement) of the EC50 value of cAMP induction compared with wild type (human FSHR [1]; FSH dependent cAMP): 3 fold
- FSH dependent cAMP induction / EC50 compared with the wild type receptor, in words (human FSHR [1]): considerably lower EC50 value
B1: S^18A: human FSHR with Ala substituted for S18 (protein)
chain: CHHRICHCSNRVFLCQEAKVTEIPSDLPRNAIELRFVLTKLRVIQKGAFSGFGDLEKIEISQNDVLEVIEADVFSNLPKLHEIRIEKANNLLYINPEAFQNLPNLQYLLISNTGIKHLPDVHKIHSLQKVLLDIQDNINIHTIERNSFVGLSFESVILWLNKNGIQEIHNCAFNGTQLDELNLSDNNNLEELPNDVFHGASGPVILDISRTRIHSLPSYGLENLKKLRARSTYNLKKLPTLEKLVALMEASLTYPSHCCAFANWRRQISELHPICNKSILRQEVDYMTQARGQRSSLAEDNESSYSRGFDMTYTEFDYDLCNEVVDVTCSPKPDAFNPCEDIMGYNILRVLIWFISILAITGNIIVLVILTTSQYKLTVPRFLMCNLAFADLCIGIYLLLIASVDIHTKSQYHNYAIDWQTGAGCDAAGFFTVFASELSVYTLTAITLERWHTITHAMQLDCKVQLRHAASVMVMGWIFAFAAALFPIFGISSYMKVSICLPMDIDSPLSQLYVMSLLVLNVLAFVVICGCYIHIYLTVRNPNIVSSSSDTRIAKRMAMLIFTDFLCMAPISFFAISASLKVPLITVSKAKILLVLFHPINSCANPFLYAIFTKNFRRDFFILLSKCGCYEMQAQIYRTETSSTVHNTHPRNGHCSSAPRVTSGSTYILVPLSHLAQN
- FSH binding / Kd compared with the wild type receptor, in words (human FSHR [2]): higher Kd value

- FSH binding to receptors solubilized in NP-40 (FSHR): did not bind
B2: D^26A: human FSHR with Ala substituted for D26 (protein)
chain: B1 chain with A18S, D26A
- FSH binding / Kd compared with the wild type receptor, in words (human FSHR [2]): completely abrogated hormone binding

- FSH binding to receptors solubilized in NP-40 (FSHR): did not bind
B3: L^27A: human FSHR with Ala substituted for L27 (protein)
chain: B1 chain with A18S, L27A
- FSH binding / Kd compared with the wild type receptor, in words (human FSHR [2]): completely abrogated hormone binding

B4: wild type: wild type human FSH receptor expressed in HEK 293 cells (protein)
chain: B1 chain with A18S
- Kd (human FSHR [2]; ^125I-FSH binding, Scatchard plots, HEK 293 cells): 4 nM
- IPt (CPM) (human FSHR [3]): 1,660 ± 240 CPM

- FSH binding to receptors solubilized in NP-40 (FSHR): did not bind
B5: P^24A: human FSHR with Ala substituted for P24 (protein)
chain: B1 chain with A18S, P24A
- FSH binding / Kd compared with the wild type receptor, in words (human FSHR [2]): completely abrogated hormone binding

- FSH binding to receptors solubilized in NP-40 (FSHR): did not bind
B6: C^15A: human FSHR with Ala substituted for C15 (protein)
chain: B1 chain with C15A, A18S
- FSH binding / Kd compared with the wild type receptor, in words (human FSHR [2]): abolished hormone binding

B7: L^583 Y: human FSHR mutant, Tyr for L583 (protein)
chain: B1 chain with A18S, L584Y
- FSH dependent cAMP induction / EC50 compared with the wild type receptor, in words (human FSHR [1]): induced significant amounts of cAMP with reasonable EC50 values
- IP induction (IP1, IP2, IP3, IPt) in response to FSH, in words (human FSHR [3]; HEK 293 cells): produced a small amount of IPt
- IPt (CPM) (human FSHR [3]): 440 ± 17 CPM
